According to paper PMC10990931, “Cryo-EM structures of RAD51 assembled on nucleosomes containing a DSB site” (Nature, 2024):
Residue numbers refer to the chain shown, from its start. Names and notes keep the numbering of the source.

B1: RAD51(K64A/K70A) (natural protein, human)
chain: MAMQMQLEANADTSVEEESFGPQPISRLEQCGINANDVKKLEEAGFHTVEAVAYAPKKELINIAGISEAAADKILAEAAKLVPMGFTTATEFHQRRSEIIQITTGSKELDKLLQGGIETGSITEMFGEFRTGKTQICHTLAVTCQLPIDRGGGEGKAMYIDTEGTFRPERLLAVAERYGLSGSDVLDNVAYARAFNTDHQTQLLYQASAMMVESRYALLIVDSATALYRTDYSGRGELSARQMHLARFLRMLLRLADEFGVAVVITNQVVAQVDGAAMFAADPKKPIGGNIIAHASTTRLYLRKGRGETRICKIYDSPCLPEAEAMFAINADGVGDAKD
notes: RAD51, human; source: E. coli, purified (Ni-NTA agarose, thrombin, spermidine precipitation, MonoQ)
B2: RAD51(R235D) (natural protein, human)
chain: B1 chain with A64K, A70K, R235D
notes: as for B1

Experiments:
[1] = target: nucleosome (human histones H2A, H2B, H3.1 and H4 with Widom 601 DNA), P04908;P06899;P68431;P62805; assay: electrophoretic mobility shift assay; details: read off a plot
[2] = target: the molecule itself; assay: cryo-EM micrographs; RAD51 alone, without nucleosome and DNA (WT 92.5 µM, K64A/K70A 73.3 µM, R235D 55.2 µM), 1 mM AMP-PNP; 37 °C 30 min, 34 mM HEPES-NaOH pH 7.5, 135 mM NaCl, 1 mM MgCl2; filament formation
[3] = ADP, RAD51 3.6 µM, parent: est. 100
[4] = AMP-PNP, RAD51 1.2 µM, parent: est. 33
[5] = AMP-PNP, RAD51 2.4 µM, parent: est. 92
[6] = AMP-PNP, RAD51 3.6 µM, parent: est. 99

Molecule | response [1, 3] | response [1, 4] | response [1, 5] | response [1, 6] | binding result [2]
human RAD51 (from UniProt Q06609) K64A | -1% | 26% | 86% | 98% | –
human RAD51 (from UniProt Q06609) K64A; K70A | -5% | 3% | 20% | 59% | –
human RAD51 (from UniProt Q06609) K70A | -9% | 19% | 78% | 93% | –
B1 | – | – | – | – | binds
B2 | – | – | – | – | binds
